According to the Human Domainome abundance scans (Beltran et al. 2025):

B1: Pyruvate dehydrogenase protein X component, mitochondrial, residues 181 to 227; numbered along this chain, O00330 (parent)
chain: RFRLSPAARNILEKHSLDASQGTATGPRGIFTKEDALKLVQLKQTGK

Variants of: B1
Test: abundance fitness (aPCA) (normalised: wild type 0, dead -1); higher = more abundant; growth selection in yeast, the domain comes from the species named
Details: Homo sapiens

Abundance fitness: each site, then its substitutions
L42: F -0.535; M -0.09; R -0.094; T -0.198; P -0.347; H -0.618; D 0.085
L17: F -0.635; K -0.509; G -0.575; A -0.506; M -0.134; C -0.244; Q -0.483; W -0.57
Q41: G -0.227; L -0.353; S 0.2; E 0.193; R 0.214; M -0.181; V -0.287; P -0.2; H -0.452
T32: W -0.716; V -0.637; K -0.517; P -0.492; N -0.733; Q -0.376; G -0.482
D18: P -0.815; I -0.336; E -0.815; N 0.028; R -0.707; Y -0.605; Q -0.113
A24: L -0.532; D -0.661; Q -0.597; Y -1.07; F -0.667; N -0.31; G -0.331
T45: M -0.211; V -0.156; I -0.428; H -0.189; R -0.023; S 0.167; C -0.217
L37: P -0.541; Q -0.545; Y -0.383; E 0.278; C -0.388; R -0.377; M -0.183; I -0.369; F -0.402
K14: M -0.149; T 0.049; C -0.306; Q 0; W -0.474; I -0.165
G29: T -0.788; S -0.435; R -0.526; I -0.349; W -0.892; F -1.05; M -0.447; N -0.395; V -0.807; L -0.609; E -0.226
Q44: I 0.039; L -0.131; V -0.133; K 0.114; W -0.641; Y -0.028; E 0.038
V40: K -0.099; C -0.183; T -0.706; P -0.314; Y -0.295; D -0.195
A8: H -0.564; V -0.639; E -0.183; T -0.387; F -0.683; M -0.29
P6: Q -0.08; H -0.367; L -0.2; T -0.093; F -0.35; A 0.027; Y -0.174; D -0.091; S 0.041; M -0.23; E 0.355
I11: W -0.786; T -0.532; G -0.409; L -0.316; R -0.397; Q -0.469; V -0.314; C -0.485; K -0.419; N -0.194
L12: Y -1.16; P -0.073; C -0.019; T -0.181; S -0.361; Q -0.199; F -0.584; N -0.319
K47: Q 0.539; M 0.312; H -0.156
G26: E -0.539; N -0.505; C -0.903; F -0.642; W -0.874; S -0.608
A36: V -0.823; K -0.563; T -0.669; N -0.428; W -1.02; D -0.262; S -0.512; E -0.317
N10: V -0.001; S 0.003; L 0.064; Q 0.106; D 0.192; G -0.058
F2: D -0.267; C -0.605; E -0.316; Y -0.015; Q -0.679; H -0.878; S -0.239; M 0.137
G46: Y 0.219; V -0.207; A -0.323; W -0.553; M -0.042; K -0.375; P -0.469; F -0.464; T -0.037
R28: V -0.456; W -0.255; S -0.146; K 0.033; T -0.281; F -0.085; I -0.936; E 0.06
R3: W -0.119; C -0.064; L -0.393; I 0.367; S -0.14
T25: L -0.519; E -0.765; C -0.423; W -1.06; F -0.697; K -0.414; H -0.58
S5: M -0.036; N -0.327; K -0.61; Q -0.384; W -1.01; H -0.795; E 0.081; V -0.621; C -0.608
K38: M -0.251; D -0.577; A -0.105; P -0.33
Q21: G -0.101; M -0.084; S -0.158; D -0.194; L -0.051; T -0.427; K -0.339; N -0.516
S20: K -0.108; G -0.192; T -0.109; L -0.345; C -0.305
T23: R -0.237; M -0.231; P -0.442; I -0.074; C -0.234; F -0.36
K33: V -0.291; W -0.762; I 0.047; P -0.607; D -0.279; Y -0.401
L39: M -0.089; H -0.271; F -0.746; T -0.505; N 0.065; A -0.319; V -0.315
A7: T 0.01; P -0.697; M -0.396; D -0.211; W -0.98; Q 0.062
K43: H 0.299; S 0.013; G -0.141; F -0.305; E -0.395; R -0.245; D -0.227
R1: W -0.651; G 0.171; A 0.02; T -1.29; N -0.353
D35: T -0.936; N -0.926; W -0.814; F -1.25; Q -0.818
R9: V -0.206; D -0.262; Q -0.05; N -0.092; C -0.924; I -0.137; H -0.252
A19: M -0.074; Q -0.343; V -0.227; T -0.379
G22: K -0.633; C -0.419; Q -0.479; V -0.378; A -0.337; I -0.446; D -0.552; S -0.619; T -0.554
E34: T -0.299; Q 0.054; M -0.536; H -0.095; N -0.811; V -0.515; R -0.329; P -0.714; A -0.155
S16: P -0.281; N 0.018; D 0.078; V -0.613; M -0.708; C -0.215; I -0.894; K 0.061; W -0.699
I30: D -0.087; L 0.116; E 0.092; A -0.105; V -0.263
F31: R -0.455; N -0.084; M -0.38; Y -0.335; S -0.306; H -0.222
E13: T -0.428; L -0.225; V -0.391; H -0.3; W -0.841; K -0.097; M -0.661; D -0.079; S -0.348; Q -0.215; A -0.255
P27: T -0.167; G -0.491; N -0.426; W -0.682; F -0.655; S -0.213; D -0.022
L4: K -0.09; G -0.241; Q -0.357; D 0.005; M -0.008; C -0.086
H15: W -0.191; R -0.985; N 0.019; M -0.1; D -0.283; G -0.255; Q -0.341
